# Assay results as given in patent US20250011363A1, “OPTIMIZED SHORTENED PEPTIDE THAT BINDS TO ACETYLCHOLINE RECEPTOR, AND USE THEREOF” (SKINMED CO., LTD., priority 2021, published 2025).
# Biological target: acetylcholine receptor
# Assay: SPR, AchR immobilised on CM5 chip, peptide 10 uM
row,Binder,Binding affinity (RU)
1,KASWKK [6mer-2-731],19
2,KNNWRR [6mer-2-742],32
3,KHCHRR [6mer-2-734],17
4,RFSFKK [6mer-2-758],18
5,RFDEKK [6mer-2-759],18
6,KPTNRK [6mer-2-756],26
7,KINWRR [6mer-2-752],29
8,KHTMKR [6mer-2-743],18
9,KIDIRR [6mer-2-740],12
10,RYEHRR [6mer-2-753],18
11,RFDKKR [6mer-2-748],28
12,KADGRR [6mer-2-754],12
13,RKCVKR [6mer-2-750],29
14,KPWFKK [6mer-2-738],29
15,RTEPRK [6mer-2-761],29
16,KDSVRR [6mer-2-737],19
17,KNTERR [6mer-2-745],17

# Now from value to binder:
row,Binding affinity (RU),Binder
1,12,RPHWKR [6mer-2-751]
2,29,RTPARK [6mer-2-733]
3,20,KMWKRK [6mer-2-749]
4,29,RANFRR [6mer-2-747]
5,18,RYNDKK [6mer-2-755]
6,19,KDHPRK [6mer-2-744]
7,30,KNEKKR [6mer-2-741]
8,26,RIKVRK [6mer-2-746]
9,17,RIHAKK [6mer-2-739]
10,15,KIPVKK [6mer-2-760]
11,24,KPTWRK [6mer-2-732]
12,29,KNNHKK [6mer-2-736]
13,19,RIPNKR [6mer-2-757]
14,21,KMNAKK [6mer-2-735]
